Series [1] concerns the target T1, mouse NaPi2b (Mus musculus, UniProt Q9DBP0).
T1 construct: expressed in transfected cells; host or cells: HEK293-6e
T1 sequence (Q9DBP0 1-697): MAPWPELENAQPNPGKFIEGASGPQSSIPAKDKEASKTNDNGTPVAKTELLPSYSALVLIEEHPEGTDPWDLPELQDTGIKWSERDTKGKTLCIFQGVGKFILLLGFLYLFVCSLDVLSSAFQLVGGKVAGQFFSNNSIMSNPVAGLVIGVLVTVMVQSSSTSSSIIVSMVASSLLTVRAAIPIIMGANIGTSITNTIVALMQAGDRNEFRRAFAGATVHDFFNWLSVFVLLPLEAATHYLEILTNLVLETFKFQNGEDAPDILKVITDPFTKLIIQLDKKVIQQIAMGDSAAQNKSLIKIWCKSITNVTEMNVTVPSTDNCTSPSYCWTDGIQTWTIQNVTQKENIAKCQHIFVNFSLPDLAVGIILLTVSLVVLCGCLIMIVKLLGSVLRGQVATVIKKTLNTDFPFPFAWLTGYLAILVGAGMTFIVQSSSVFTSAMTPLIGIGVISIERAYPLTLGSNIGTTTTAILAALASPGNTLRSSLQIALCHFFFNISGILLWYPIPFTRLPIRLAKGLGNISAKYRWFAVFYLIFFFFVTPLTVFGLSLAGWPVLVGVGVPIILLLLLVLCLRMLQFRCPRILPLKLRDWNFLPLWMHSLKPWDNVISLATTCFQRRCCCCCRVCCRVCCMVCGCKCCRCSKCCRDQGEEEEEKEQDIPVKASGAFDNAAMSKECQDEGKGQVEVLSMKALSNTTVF
The series can be described thus: Flow cytometry binding to HEK293-6e cells transfected with mouse NaPi2b (Example 5). Conditions: transfected HEK293-6e cells, 18-24 hours at 4° C. On the procedure: The binding cross-reactivity of humanized antibody variant v29456 to human, cynomolgus and mouse NaPi2b was assessed by flow cytometry using HEK293-6e transfected cells.
Briefly, HEK293-6e cells were transfected for ˜24 hours to transiently express human NaPi2b, cynomolgus or mouse NaPi2b, at 1 μg of DNA per 1 million cells. Following transfection, 50,000 cells per well were seeded in V-bottom 96-well plates and incubated with 200 nM of primary antibody for 18-24 hours at 4° C. to prevent internalization. Post-incubation, cells were washed and stained with anti-Human IgG Fc AF647 conjugate (Jackson Immuno Research Labs, West Grove, PA, Cat. No. 109-605-098, Lot. No. 124868) at 4° C. for 1 hour. Following staining and washing, fluorescence was detected by flow cytometry on BD LSRFortessa™ Cell Analyzer (BD Biosciences, Franklin Lake, NJ) with 10,000 minimum events collected per well. The AF647/APC-A GeoMean (fluorescence signal geometric mean, proportional to anti-Human AF647 binding) was calculated for the live singlet cell population for each primary antibody using FlowJo™ v8 software (BD Biosciences, Franklin Lake, NJ). The Bmax and Kd of each primary antibody were calculated using GraphPad Prism Version 9 (GraphPad Software, San Diego, CA)
A general note: Flow cytometry measures light scatter and fluorescence of single cells or particles in a stream.

The nature of series [2]: Stability (fragmentation) in mouse plasma at 37° C. by LC-MS. The series is classed as in vitro ADME. Particulars: for apparent % desired proteoforms: Mouse Plasma 37° C., 0.5 mg/ml. How it is done: Samples were removed after 0, 7 and 14 days and stored at −80° C. until characterization. For characterization, samples were thawed at room temperature and 50 μg were incubated with 5 μg of recombinant EndoS endoglycosidase for one hour at room temperature. An immunoprecipitation slurry was generated by a 45 min incubation of 95 μL/sample of magnetic Sepharose streptavidin-coated beads with 15 μg/sample of biotinylated goat anti-Human IgG Fc capture antibody, followed by 4 washes with PBS pH 7.4 with the aid of a DynaMag™-2 magnet (Invitrogen™).
After deglycosylation, plasma-incubated samples were incubated with 95 μL of the immunoprecipitation slurry for 1.5 hrs at room temperature. Then, the slurry underwent 6 washes with PBS pH 7.4 and 2 washes with LC-MS-grade water with the aid of a DynaMag™-2 magnet (Invitrogen™). A final wash with PBS pH 7.4 was performed before elution. Protein was eluted by incubating beads with 35 μL of LC-MS grade water with 20% acetonitrile and 0.1% formic acid for one hour at room temperature. PBS samples were not immunoprecipitated.
5 μL of the eluted sample were transferred to glass inserts in LC-MS vials. For LC-MS analysis, 1 μL of sample were injected into a Waters™ BioSuite Phenyl Column, 1000 Å, 10 μm, 4.6 mm×75 mm using a Waters™ ACQUITY™ UPLC I-Class HPLC system coupled to a Waters™ Synapt™ G2-Si HDMS with a column temperature of 70 C and a flow rate of 0.3 mL/min. Mobile phases consisted of A: LC-MS grade water with 0.1% v/v formic acid, 0.025 v/v trifluoroacetic acid and 10% v/v isopropyl alcohol in, and B: acetonitrile with 0.1% v/v formic acid and 10% v/v isopropyl alcohol. The column was pre-equilibrated in 10% mobile phase B before injection. Then, a 20 min 10 to 27% mobile phase B gradient was applied, followed by a 2 min 27 to 90% mobile phase B gradient and a column wash of 2 min at 99% mobile phase B.
The column was re-equilibrated to 10% mobile phase B for 2 minutes between runs. ESI was performed in positive mode with 3 kV of capillary voltage, 120 C source temperature, 100 V sampling cone voltage, source offset of 80 V, source gas flow of 0 ml/min, desolvation temperature 500 C, cone gas flow 0 μL/Hr, desolvation gas flow […], nebuliser gas flow 6.5 bar. Data format was continuum with analyser set in sensitivity mode, with a m/z range from 500 to 7000.
Peak integration, MS deconvolution and mass assignments were performed in Protein Metrics Byos® v4.0 using a deconvolution window of 60000-160000 Da with an m/z range of 1000-4000. For all time points, the highest intensity deconvoluted mass was assigned as the reference mass of v29456. […]

B1: v29456: humanized anti-NaPi2b IgG1/kappa antibody H1L2; VH SEQ ID NO:24, VL SEQ ID NO:29 (antibody, V domains shown)
VH: QVQLVQSGAEVKKPGASVKVSCKASGFTFTSYNVHWVRQAPGQGLEWMGAISPGNGDLSYAQKFQGRVTMTRDTSTSTVYMELSSLRSEDTAVYYCARGRTGMGAVDYWGQGTLVTVSS
VL: DVQMTQSPSSLSASVGDRVTITCRASQDVYSYLNWYQQKPGKAVKLLIYYTSRLQSGVPSRFSGSGSGTDYTLTISSLQPEDFATYYCQQYNIFPWTFGQGTKLEIK
modifications: v29452, v29456, v29460 VH (H1); v29453, v29454, v29455, v29456 VL (L2)
Regarding B1, the “Bmax (APC-A GeoMean), Ms NaPi2b” value in series [1] was 2,062 APC-A GeoMean. For the same molecule, the Kd in series [1] (highest antibody concentration 200 nM, read-out: Apparent Kd (nM), Ms NaPi2b) came to 10.6 nM. The “fragmentation in mouse plasma, in words” value in series [2] (37° C., 7 and 14 days) is reported as “no evidence of fragmentation”. The entries for the “apparent % desired proteoforms” value in series [2] (0 days), in series [2] (7 days) and in series [2] (14 days) were 99.9%, 100.0% and 98.4%, respectively.

The values above are taken from patent publication US20250277030A1, “ANTI-NAPI2B ANTIBODIES AND METHODS OF USE” (Zymeworks BC Inc., priority 2022, published 2025).
